From patent US20200085917A1

Legend:
[1] = molecular target: T1, Cplx2_IPI:IPI00111501.1 (mouse) (UniProt P84086); assay: GST pull-down, LC-MS/MS
T1 sequence (looked up): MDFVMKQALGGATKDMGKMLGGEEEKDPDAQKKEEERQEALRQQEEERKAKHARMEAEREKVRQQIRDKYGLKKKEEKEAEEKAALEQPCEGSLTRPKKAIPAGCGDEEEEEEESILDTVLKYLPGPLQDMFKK

[2] = molecular target: Timm17b_IPI:IPI00129504.1 (mouse) (UniProt Q9Z0V7); assay: GST pull-down, LC-MS/MS
[3] = molecular target: T2, Nipsnap1_IPI:IPI00115824.1 (mouse) (UniProt O55125); assay: GST pull-down, LC-MS/MS
T2 sequence (looked up): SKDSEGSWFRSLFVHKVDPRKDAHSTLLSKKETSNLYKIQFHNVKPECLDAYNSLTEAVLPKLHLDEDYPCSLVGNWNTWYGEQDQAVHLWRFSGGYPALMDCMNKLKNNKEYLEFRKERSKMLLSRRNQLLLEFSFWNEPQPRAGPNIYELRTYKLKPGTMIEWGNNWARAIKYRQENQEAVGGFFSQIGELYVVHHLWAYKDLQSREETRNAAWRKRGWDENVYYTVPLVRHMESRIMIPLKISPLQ

[4] = molecular target: T3, Gbas_IPI:IPI00115827.1 (mouse) (UniProt O55126); assay: GST pull-down, LC-MS/MS
T3 sequence (looked up): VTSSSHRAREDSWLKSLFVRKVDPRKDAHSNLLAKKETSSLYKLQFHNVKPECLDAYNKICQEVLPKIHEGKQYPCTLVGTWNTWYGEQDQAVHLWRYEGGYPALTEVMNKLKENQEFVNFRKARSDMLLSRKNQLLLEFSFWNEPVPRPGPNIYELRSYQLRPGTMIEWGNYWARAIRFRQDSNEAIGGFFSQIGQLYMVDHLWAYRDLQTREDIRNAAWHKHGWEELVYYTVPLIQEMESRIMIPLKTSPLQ

[5] = molecular target: IPI:IPI00123176.1_IPI:IPI00123176.1 (mouse); assay: GST pull-down, LC-MS/MS
[6] = molecular target: Hspa9_IPI:IPI00880839.1 (mouse) (UniProt P38647); assay: GST pull-down, LC-MS/MS
[7] = molecular target: Atp1a3_IPI:IPI00122048.2 (mouse) (UniProt Q6PIC6); assay: GST pull-down, LC-MS/MS
[8] = molecular target: T4, Syngr3_IPI:IPI00331579.1 (mouse) (UniProt Q8R191); assay: GST pull-down, LC-MS/MS
T4 sequence (looked up): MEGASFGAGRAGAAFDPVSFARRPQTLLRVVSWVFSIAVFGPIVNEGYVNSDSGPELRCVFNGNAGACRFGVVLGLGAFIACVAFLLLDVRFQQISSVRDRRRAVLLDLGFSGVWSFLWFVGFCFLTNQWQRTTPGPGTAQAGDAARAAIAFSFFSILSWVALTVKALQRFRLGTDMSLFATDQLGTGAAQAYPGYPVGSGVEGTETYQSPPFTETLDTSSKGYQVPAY

[9] = molecular target: T5, Hmgcl_IPI:IPI00127625.1 (mouse) (UniProt P38060); assay: GST pull-down, LC-MS/MS
T5 sequence (looked up): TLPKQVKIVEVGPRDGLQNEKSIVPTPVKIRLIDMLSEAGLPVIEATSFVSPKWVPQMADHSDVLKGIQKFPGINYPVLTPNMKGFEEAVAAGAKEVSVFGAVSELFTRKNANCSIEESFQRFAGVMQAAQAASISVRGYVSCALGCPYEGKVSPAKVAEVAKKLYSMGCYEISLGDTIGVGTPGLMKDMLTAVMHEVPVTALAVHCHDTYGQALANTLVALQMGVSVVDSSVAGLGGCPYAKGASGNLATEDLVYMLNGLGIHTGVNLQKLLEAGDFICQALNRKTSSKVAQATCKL

[10] = molecular target: TIM23 complex (mitochondrial inner membrane translocase, mouse forebrain mitochondria) (mouse) (UniProt Q9WTQ8); assay: cell-based or functional assay
[11] = molecular target: Dsp_IPI:IPI00553419.3 (mouse) (UniProt E9Q557); assay: GST pull-down, LC-MS/MS
[12] = molecular target: Rtn1_IPI:IPI00395193.1 (mouse) (UniProt Q8K0T0); assay: GST pull-down, LC-MS/MS
[13] = molecular target: LOC100044454_IPI:IPI00135284.1 (mouse); assay: GST pull-down, LC-MS/MS
[14] = molecular target: Cyc1_IPI:IPI00132728.2 (mouse) (UniProt Q9D0M3); assay: GST pull-down, LC-MS/MS
[15] = molecular target: Ywhaq_IPI:IPI00408378.4 (mouse) (UniProt P68254); assay: GST pull-down, LC-MS/MS
[16] = molecular target: Slc25a27_IPI:IPI00108998.1 (mouse) (UniProt Q9D6D0); assay: GST pull-down, LC-MS/MS
[17] = molecular target: Rab2a_IPI:IPI00137227.1 (mouse) (UniProt P53994); assay: GST pull-down, LC-MS/MS
[18] = molecular target: Dnajc19_IPI:IPI00111111.5 (mouse) (UniProt Q9CQV7); assay: GST pull-down, LC-MS/MS
[19] = molecular target: Tpi1_IPI:IPI00467833.6 (mouse) (UniProt P17751); assay: GST pull-down, LC-MS/MS
[20] = molecular target: Snap25_IPI:IPI00125635.1 (mouse) (UniProt P60879); assay: GST pull-down, LC-MS/MS
[21] = molecular target: Afg3l2_IPI:IPI00170357.5 (mouse) (UniProt Q8JZQ2); assay: GST pull-down, LC-MS/MS
[22] = molecular target: Pptc7_IPI:IPI00421081.3 (mouse) (UniProt Q6NVE9); assay: GST pull-down, LC-MS/MS

Chain of GST-Httex1-23Q (P08515 1-218, tags or fused parts left off): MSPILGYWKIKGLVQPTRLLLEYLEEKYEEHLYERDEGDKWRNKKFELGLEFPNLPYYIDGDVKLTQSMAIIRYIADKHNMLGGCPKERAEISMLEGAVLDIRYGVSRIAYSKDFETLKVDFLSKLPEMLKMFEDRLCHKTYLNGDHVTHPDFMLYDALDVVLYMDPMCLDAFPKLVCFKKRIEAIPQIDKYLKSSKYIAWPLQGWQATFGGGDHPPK
Chain of Timm17b_IPI:IPI00129504.1 (mouse) (Q9Z0V7 whole entry): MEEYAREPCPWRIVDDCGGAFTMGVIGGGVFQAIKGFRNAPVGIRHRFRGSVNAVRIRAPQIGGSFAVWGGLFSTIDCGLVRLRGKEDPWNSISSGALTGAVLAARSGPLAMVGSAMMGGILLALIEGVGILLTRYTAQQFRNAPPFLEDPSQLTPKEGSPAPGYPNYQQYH
Chain of Hspa9_IPI:IPI00880839.1 (mouse) (P38647 47-679 limits assumed): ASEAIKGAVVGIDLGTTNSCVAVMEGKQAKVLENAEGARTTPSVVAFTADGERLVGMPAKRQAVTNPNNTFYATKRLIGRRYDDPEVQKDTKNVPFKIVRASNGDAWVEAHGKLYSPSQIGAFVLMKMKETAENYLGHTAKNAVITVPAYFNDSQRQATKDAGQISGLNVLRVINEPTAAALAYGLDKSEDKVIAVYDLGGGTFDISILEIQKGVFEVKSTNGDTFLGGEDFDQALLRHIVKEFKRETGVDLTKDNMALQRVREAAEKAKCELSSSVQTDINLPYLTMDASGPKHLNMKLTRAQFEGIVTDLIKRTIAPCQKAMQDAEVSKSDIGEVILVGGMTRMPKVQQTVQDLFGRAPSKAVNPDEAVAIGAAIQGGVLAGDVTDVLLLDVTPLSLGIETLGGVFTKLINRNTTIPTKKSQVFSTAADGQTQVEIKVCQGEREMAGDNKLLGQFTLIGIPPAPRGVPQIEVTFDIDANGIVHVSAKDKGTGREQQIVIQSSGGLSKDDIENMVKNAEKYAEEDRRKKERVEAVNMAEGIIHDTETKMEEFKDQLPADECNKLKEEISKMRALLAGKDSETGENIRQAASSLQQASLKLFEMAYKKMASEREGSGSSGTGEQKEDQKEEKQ
Chain of Rab2a_IPI:IPI00137227.1 (mouse) (P53994 2-212 limits assumed): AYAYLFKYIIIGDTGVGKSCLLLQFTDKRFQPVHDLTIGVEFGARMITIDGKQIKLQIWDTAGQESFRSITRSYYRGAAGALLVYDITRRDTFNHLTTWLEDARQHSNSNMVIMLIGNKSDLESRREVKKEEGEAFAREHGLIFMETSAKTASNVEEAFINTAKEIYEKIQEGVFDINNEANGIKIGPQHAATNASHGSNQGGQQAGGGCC
Chain of Dsp_IPI:IPI00553419.3 (mouse) (E9Q557 whole entry): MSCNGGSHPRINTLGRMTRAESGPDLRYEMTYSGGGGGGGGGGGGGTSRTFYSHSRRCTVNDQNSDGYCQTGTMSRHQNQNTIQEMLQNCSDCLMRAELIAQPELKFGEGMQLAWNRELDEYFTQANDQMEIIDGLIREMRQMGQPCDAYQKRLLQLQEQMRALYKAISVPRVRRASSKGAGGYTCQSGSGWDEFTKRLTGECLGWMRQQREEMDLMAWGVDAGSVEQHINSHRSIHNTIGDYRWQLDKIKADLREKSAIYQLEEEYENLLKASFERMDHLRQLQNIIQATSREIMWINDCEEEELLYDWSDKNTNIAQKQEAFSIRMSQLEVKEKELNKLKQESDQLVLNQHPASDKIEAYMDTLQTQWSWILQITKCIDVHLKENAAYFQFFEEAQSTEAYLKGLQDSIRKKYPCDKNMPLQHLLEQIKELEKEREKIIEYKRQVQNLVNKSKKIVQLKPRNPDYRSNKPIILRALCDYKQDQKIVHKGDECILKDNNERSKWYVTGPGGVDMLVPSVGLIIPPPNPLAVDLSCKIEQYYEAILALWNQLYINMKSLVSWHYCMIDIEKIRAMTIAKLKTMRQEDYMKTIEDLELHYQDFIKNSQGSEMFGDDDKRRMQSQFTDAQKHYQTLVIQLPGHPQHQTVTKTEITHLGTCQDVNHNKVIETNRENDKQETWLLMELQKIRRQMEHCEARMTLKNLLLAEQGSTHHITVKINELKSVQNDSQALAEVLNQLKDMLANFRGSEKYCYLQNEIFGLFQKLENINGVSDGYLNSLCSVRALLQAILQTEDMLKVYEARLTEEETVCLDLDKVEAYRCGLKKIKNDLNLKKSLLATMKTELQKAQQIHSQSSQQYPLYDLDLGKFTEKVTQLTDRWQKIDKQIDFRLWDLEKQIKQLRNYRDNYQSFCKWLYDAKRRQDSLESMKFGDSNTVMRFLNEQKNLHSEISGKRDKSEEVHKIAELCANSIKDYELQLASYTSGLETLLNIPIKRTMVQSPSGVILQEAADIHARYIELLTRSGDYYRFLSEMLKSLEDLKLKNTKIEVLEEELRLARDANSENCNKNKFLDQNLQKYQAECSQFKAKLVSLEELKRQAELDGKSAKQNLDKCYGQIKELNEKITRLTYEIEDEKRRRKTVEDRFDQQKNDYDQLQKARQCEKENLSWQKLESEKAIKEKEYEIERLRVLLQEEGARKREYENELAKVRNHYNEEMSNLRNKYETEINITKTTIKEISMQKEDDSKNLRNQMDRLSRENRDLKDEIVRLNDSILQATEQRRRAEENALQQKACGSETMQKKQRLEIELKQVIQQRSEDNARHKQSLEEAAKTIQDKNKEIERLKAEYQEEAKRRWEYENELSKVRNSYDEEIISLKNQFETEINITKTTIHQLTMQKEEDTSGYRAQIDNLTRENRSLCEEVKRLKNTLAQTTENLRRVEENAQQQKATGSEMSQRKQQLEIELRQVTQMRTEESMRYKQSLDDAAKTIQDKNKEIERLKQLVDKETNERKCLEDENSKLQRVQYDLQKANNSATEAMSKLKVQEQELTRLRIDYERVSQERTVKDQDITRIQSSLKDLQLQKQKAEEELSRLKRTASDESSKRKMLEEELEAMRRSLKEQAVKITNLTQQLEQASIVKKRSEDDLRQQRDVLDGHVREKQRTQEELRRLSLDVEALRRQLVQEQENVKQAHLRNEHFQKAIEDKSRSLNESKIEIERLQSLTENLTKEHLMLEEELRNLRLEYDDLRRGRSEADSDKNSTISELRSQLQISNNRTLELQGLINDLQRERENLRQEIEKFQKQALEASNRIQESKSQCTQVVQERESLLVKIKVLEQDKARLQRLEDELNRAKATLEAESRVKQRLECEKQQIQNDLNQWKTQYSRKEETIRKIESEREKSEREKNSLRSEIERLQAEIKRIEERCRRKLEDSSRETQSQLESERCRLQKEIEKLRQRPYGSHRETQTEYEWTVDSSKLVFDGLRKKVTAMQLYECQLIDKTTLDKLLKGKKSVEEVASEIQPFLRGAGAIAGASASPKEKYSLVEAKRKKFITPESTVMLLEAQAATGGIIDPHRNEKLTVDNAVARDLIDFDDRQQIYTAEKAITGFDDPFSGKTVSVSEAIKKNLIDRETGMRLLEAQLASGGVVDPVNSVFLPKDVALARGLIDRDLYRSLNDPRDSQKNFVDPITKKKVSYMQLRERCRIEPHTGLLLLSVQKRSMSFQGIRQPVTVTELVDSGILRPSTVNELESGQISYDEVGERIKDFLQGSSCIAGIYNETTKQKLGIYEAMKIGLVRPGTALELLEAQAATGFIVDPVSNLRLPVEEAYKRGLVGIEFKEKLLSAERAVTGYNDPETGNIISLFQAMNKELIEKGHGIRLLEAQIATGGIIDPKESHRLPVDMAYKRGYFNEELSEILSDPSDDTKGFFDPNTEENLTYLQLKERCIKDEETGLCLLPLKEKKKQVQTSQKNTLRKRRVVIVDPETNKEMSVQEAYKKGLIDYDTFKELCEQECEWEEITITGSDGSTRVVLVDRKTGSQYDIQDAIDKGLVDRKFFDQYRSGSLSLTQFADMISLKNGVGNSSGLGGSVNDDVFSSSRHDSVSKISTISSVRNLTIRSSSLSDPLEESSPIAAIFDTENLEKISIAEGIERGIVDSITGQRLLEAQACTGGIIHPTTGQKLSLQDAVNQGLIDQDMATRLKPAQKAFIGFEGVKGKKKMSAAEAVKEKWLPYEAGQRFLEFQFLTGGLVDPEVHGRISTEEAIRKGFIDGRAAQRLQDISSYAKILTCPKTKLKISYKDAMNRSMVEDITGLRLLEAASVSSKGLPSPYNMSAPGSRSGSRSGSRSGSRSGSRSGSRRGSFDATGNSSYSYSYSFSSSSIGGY
Chain of Ywhaq_IPI:IPI00408378.4 (mouse) (P68254 whole entry): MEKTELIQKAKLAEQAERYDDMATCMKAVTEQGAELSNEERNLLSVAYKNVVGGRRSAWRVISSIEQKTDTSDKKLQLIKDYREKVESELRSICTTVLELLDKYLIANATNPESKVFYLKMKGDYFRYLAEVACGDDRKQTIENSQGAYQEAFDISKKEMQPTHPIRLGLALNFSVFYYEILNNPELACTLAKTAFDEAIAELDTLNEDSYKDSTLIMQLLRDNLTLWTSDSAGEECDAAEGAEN
Chain of Dnajc19_IPI:IPI00111111.5 (mouse) (Q9CQV7 2-116 limits assumed): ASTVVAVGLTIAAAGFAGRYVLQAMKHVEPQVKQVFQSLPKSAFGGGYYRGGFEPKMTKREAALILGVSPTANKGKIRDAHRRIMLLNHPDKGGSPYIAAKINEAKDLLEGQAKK
Chain of Slc25a27_IPI:IPI00108998.1 (mouse) (Q9D6D0 whole entry): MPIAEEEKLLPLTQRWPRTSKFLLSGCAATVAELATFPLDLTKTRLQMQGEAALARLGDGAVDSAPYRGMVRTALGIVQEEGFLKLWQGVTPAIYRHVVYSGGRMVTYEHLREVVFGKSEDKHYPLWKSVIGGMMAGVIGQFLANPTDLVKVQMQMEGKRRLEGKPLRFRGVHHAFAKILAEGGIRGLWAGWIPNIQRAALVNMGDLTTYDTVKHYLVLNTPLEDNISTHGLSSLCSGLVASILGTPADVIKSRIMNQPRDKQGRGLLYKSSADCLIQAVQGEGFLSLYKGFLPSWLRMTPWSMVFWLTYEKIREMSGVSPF
Chain of Snap25_IPI:IPI00125635.1 (mouse) (P60879 whole entry): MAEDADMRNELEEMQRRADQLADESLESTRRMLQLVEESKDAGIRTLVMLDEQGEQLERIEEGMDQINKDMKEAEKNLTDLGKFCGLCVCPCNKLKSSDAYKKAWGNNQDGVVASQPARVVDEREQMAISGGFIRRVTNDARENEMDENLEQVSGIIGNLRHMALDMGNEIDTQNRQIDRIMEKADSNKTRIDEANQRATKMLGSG

## GST-Httex1-23Q (from UniProt P08515 1-218; P42858 1-88)
[1]
  No. of total peptides: 1 peptides
  No. of unique peptides: 1 peptides
[2]
  No. of total peptides: 3 peptides
  No. of unique peptides: 3 peptides
[3]
  No. of total peptides: 1 peptides
  No. of unique peptides: 1 peptides
[4]
  No. of total peptides: 2 peptides
  No. of unique peptides: 2 peptides
[5]
  No. of total peptides: 1 peptides
  No. of unique peptides: 1 peptides
[6]
  No. of total peptides: 1 peptides
  No. of unique peptides: 1 peptides
[7]
  No. of total peptides: 2 peptides
  No. of unique peptides: 2 peptides
[8]
  No. of total peptides: 1 peptides
  No. of unique peptides: 1 peptides
[9]
  No. of total peptides: 1 peptides
  No. of unique peptides: 1 peptides

## GST-Httex1-97Q (from UniProt P08515 1-218; P42858 1-88)
[10]
  reduction of pOTC import into wild-type mouse forebrain mitochondria after incubation with 3 µM GST-Httex1-97Q, compared to control GST: 50%
  reduction of pOTC import into wild-type mouse forebrain mitochondria after incubation with 10 µM GST-Httex1-97Q, compared to control GST: 73%
[1]
  No. of total peptides: 6 peptides
  No. of unique peptides: 5 peptides
[11]
  No. of total peptides: 4 peptides
  No. of unique peptides: 4 peptides
[12]
  No. of total peptides: 1 peptides
  No. of unique peptides: 1 peptides
[13]
  No. of total peptides: 3 peptides
  No. of unique peptides: 3 peptides
[2]
  No. of total peptides: 1 peptides
  No. of unique peptides: 1 peptides
[3]
  No. of total peptides: 1 peptides
  No. of unique peptides: 1 peptides
[14]
  No. of total peptides: 1 peptides
  No. of unique peptides: 1 peptides
[15]
  No. of total peptides: 1 peptides
  No. of unique peptides: 1 peptides
[4]
  No. of total peptides: 5 peptides
  No. of unique peptides: 3 peptides
[5]
  No. of total peptides: 2 peptides
  No. of unique peptides: 2 peptides
[6]
  No. of total peptides: 1 peptides
  No. of unique peptides: 1 peptides
[7]
  No. of total peptides: 3 peptides
  No. of unique peptides: 3 peptides
[16]
  No. of total peptides: 2 peptides
  No. of unique peptides: 2 peptides
[17]
  No. of total peptides: 1 peptides
  No. of unique peptides: 1 peptides
[8]
  No. of total peptides: 2 peptides
  No. of unique peptides: 2 peptides
[18]
  No. of total peptides: 1 peptides
  No. of unique peptides: 1 peptides
[19]
  No. of total peptides: 1 peptides
  No. of unique peptides: 1 peptides
[9]
  No. of total peptides: 1 peptides
  No. of unique peptides: 1 peptides
[20]
  No. of total peptides: 1 peptides
  No. of unique peptides: 1 peptides
[21]
  No. of total peptides: 5 peptides
  No. of unique peptides: 4 peptides
[22]
  No. of total peptides: 1 peptides
  No. of unique peptides: 1 peptides
